One block for each binder: values may come before it.
B4: Flag-Cep57 (natural protein, human, UniProt Q86XR8 1-500, looked up)
chain: MAAASVSAASGSHLSNSFAEPSRSNGSMVRHSSSPYVVYPSDKPFLNSDLRRSPSKPTLAYPESNSRAIFSALKNLQDKIRRLELERIQAEESVKTLSRETIEYKKVLDEQIQERENSKNEESKHNQELTSQLLAAENKCNLLEKQLEYMRNMIKHAEMERTSVLEKQVSLERERQHDQTHVQSQLEKLDLLEQEYNKLTTMQALAEKKMQELEAKLHEEEQERKRMQAKAAELQTGLETNRLIFEDKATPCVPNARRIKKKKSKPPEKKSSRNYFGAQPHYRLCLGDMPFVAGKSTSPSHAVVANVQLVLHLMKQHSKALCNDRVINSIPLAKQVSSRGGKSKKLSVTPPSSNGINEELSEVLQTLQDEFGQMSFDHQQLAKLIQESPTVELKDKLECELEALVGRMEAKANQITKVRKYQAQLEKQKLEKQKKELKATKKTLDEERNSSSRSGITGTTNKKDFMKLRPGEKRRKNLQLLKDMQSIQNSLQSSSLCWDY
notes: Cep57 (translokin), human; cDNA amplified from a HeLa cell cDNA library; also called purified Cep57 from HEK293T cells; source: HEK293T, purified (anti-Flag beads, 600 mM NaCl wash, eluted by 3 x Flag peptides); not shown: Flag, N-terminal, kept

Experiments:
Settings in all cases: both partners purified
Flag-Mad1 = target: T1, Flag-Mad1 (human, UniProt Q9Y6D9 1-718); test: co-IP; purified proteins incubated together, immunoprecipitated with anti-Flag or anti-GFP antibody, western blotting
T1 construct: Mad1, human; cDNA amplified from a HeLa cell cDNA library; also called Flag-Mad1 (FL); source: HEK293T, purified (anti-Flag beads, 600 mM NaCl wash, eluted by 3 x Flag peptides); not shown: Flag, N-terminal, kept
T1 sequence (looked up): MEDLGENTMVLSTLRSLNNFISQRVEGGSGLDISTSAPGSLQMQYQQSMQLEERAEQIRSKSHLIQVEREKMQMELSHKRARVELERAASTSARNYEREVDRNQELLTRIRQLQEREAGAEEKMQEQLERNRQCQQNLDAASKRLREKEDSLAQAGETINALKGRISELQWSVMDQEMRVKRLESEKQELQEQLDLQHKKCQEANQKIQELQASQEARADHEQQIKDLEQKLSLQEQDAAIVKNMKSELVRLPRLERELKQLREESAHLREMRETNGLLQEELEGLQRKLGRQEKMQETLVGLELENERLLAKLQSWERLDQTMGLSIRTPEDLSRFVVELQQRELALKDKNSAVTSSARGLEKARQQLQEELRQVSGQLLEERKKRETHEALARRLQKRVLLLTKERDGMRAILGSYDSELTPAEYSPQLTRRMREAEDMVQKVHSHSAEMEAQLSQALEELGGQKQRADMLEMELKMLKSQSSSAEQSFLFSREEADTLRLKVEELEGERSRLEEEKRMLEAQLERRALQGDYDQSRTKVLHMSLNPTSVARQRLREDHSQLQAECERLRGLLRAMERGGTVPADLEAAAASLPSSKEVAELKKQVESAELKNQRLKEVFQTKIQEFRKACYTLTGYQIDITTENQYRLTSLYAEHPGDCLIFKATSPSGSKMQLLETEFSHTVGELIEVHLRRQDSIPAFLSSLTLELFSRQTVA

Flag-Cep57 = target: B4; test: as above
[1] = target: T2, MBP-Cep57 (1–242 amino acids) (human, UniProt Q86XR8 1-242); test: pull-down; about 0.2 μg MBP-Cep57 fragment coupled to Amylose Magnetic beads incubated with about 0.2 μg purified, eluted GST-tagged protein; washed five times with lysis buffer; western blotting with anti-GST
T2 construct: also called MBP-Cep57N; source: E. coli BL21, purified (Amylose Magnetic beads); not shown: MBP, N-terminal, kept
T2 sequence (looked up): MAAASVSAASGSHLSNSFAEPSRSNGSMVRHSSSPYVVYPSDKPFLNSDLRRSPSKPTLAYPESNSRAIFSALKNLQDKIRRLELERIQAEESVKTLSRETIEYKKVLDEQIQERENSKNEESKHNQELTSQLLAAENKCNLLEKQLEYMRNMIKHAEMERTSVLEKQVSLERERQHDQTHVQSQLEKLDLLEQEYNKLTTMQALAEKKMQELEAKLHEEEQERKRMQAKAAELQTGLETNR

[2] = target: T3, GST-Mad1 (176–718 amino acids) (human, UniProt Q9Y6D9 176-718); test: as above
T3 construct: source: E. coli BL21, purified (Glutathione Sepharose 4B, eluted by glutathione); not shown: GST, N-terminal, kept
T3 sequence (looked up): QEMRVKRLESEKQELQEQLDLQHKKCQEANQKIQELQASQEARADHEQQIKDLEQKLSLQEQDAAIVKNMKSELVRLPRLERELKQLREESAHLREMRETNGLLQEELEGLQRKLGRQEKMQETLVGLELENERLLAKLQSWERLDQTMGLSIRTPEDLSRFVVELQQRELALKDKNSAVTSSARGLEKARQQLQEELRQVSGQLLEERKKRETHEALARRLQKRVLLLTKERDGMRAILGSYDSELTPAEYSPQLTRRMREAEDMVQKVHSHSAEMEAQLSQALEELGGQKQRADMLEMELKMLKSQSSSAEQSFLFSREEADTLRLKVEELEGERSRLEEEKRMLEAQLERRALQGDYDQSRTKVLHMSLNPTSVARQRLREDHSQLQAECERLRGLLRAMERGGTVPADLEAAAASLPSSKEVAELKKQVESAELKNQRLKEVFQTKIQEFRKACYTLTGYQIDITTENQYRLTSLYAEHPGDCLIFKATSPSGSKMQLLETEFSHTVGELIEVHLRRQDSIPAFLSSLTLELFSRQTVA

Mad1-GFP = target: T4, Mad1-GFP (human, UniProt Q9Y6D9 1-718); test: co-IP; purified proteins incubated together, immunoprecipitated with anti-Flag or anti-GFP antibody, western blotting
T4 construct: Mad1, human; cDNA amplified from a HeLa cell cDNA library; not shown: GFP, C-terminal, kept
T4 sequence (looked up): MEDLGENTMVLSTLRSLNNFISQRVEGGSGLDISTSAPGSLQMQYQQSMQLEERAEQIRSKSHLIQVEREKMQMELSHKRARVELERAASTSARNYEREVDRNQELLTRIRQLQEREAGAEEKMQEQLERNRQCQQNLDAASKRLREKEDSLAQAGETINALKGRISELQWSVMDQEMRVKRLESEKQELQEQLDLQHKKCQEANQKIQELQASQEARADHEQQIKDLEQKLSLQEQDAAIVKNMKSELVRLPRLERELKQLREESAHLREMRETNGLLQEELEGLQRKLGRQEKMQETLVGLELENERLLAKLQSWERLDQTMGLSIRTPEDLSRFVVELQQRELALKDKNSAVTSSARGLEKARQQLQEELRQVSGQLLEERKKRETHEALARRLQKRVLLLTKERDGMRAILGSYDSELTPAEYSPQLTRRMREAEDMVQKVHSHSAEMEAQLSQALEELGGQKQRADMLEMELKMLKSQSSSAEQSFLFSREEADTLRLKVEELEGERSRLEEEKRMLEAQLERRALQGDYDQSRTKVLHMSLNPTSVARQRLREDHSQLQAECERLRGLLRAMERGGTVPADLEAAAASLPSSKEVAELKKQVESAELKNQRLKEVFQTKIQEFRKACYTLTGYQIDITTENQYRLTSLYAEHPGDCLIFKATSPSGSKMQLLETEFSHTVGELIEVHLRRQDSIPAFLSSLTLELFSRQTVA

binding result (Flag-Mad1): binds
B1: GST-Cep57 (195–500 amino acids) (domain or fragment, human, UniProt Q86XR8 195-500, looked up)
chain: EYNKLTTMQALAEKKMQELEAKLHEEEQERKRMQAKAAELQTGLETNRLIFEDKATPCVPNARRIKKKKSKPPEKKSSRNYFGAQPHYRLCLGDMPFVAGKSTSPSHAVVANVQLVLHLMKQHSKALCNDRVINSIPLAKQVSSRGGKSKKLSVTPPSSNGINEELSEVLQTLQDEFGQMSFDHQQLAKLIQESPTVELKDKLECELEALVGRMEAKANQITKVRKYQAQLEKQKLEKQKKELKATKKTLDEERNSSSRSGITGTTNKKDFMKLRPGEKRRKNLQLLKDMQSIQNSLQSSSLCWDY
notes: also called C terminus of Cep57; C-terminal Cep57; source: E. coli, purified (Glutathione Sepharose 4B); not shown: GST, N-terminal, kept

binding result (Flag-Cep57): binds | binding result [1]: binds
B2: GST-Mis12 (natural protein, human, UniProt Q9H081 1-205, looked up)
chain: MSVDPMTYEAQFFGFTPQTCMLRIYIAFQDYLFEVMQAVEQVILKKLDGIPDCDISPVQIRKCTEKFLCFMKGHFDNLFSKMEQLFLQLILRIPSNILLPEDKCKETPYSEEDFQHLQKEIEQLQEKYKTELCTKQALLAELEEQKIVQAKLKQTLTFFDELHNVGRDHGTSDFRESLVSLVQNSRKLQNIRDNVEKESKRLKIS
notes: Mis12, human; cDNA amplified from a HeLa cell cDNA library; also called Mis12 from bacteria; WT GST-Mis12; source: E. coli BL21, purified (Glutathione Sepharose 4B, eluted by glutathione); not shown: GST, N-terminal, kept

binding result [2]: binds
B3: MBP-Cep57 (151–500 amino acids) (domain or fragment, human, UniProt Q86XR8 151-500, looked up)
chain: RNMIKHAEMERTSVLEKQVSLERERQHDQTHVQSQLEKLDLLEQEYNKLTTMQALAEKKMQELEAKLHEEEQERKRMQAKAAELQTGLETNRLIFEDKATPCVPNARRIKKKKSKPPEKKSSRNYFGAQPHYRLCLGDMPFVAGKSTSPSHAVVANVQLVLHLMKQHSKALCNDRVINSIPLAKQVSSRGGKSKKLSVTPPSSNGINEELSEVLQTLQDEFGQMSFDHQQLAKLIQESPTVELKDKLECELEALVGRMEAKANQITKVRKYQAQLEKQKLEKQKKELKATKKTLDEERNSSSRSGITGTTNKKDFMKLRPGEKRRKNLQLLKDMQSIQNSLQSSSLCWDY
notes: Cep57, human, residues 151-500; source: E. coli BL21, purified (Amylose Magnetic beads); not shown: MBP, N-terminal, kept

Binder: B4
binding result (Mad1-GFP): binds
